Assay results: patent US20250302947A1, “M-cell GP2-mediated lymphatic-targeted drug carriers” (Hong Kong Baptist University, priority 2022, published 2025)

What was measured:
[1] = test system: GP2+M cell (M-like cells); experiment: In vitro M-cell-like model (Caco-2 / Raji B co-culture on transwell inserts); assay type: cell-based, human; conditions: confocal microscopy
Description: Caco-2 cells were grown in flasks in 10% (v/v) fetal calf serum DMEM at 37° C. under a 10% CO2 water-saturated atmosphere. Caco-2 cells were grown on Transwell polyester inserts (0.3 μm pore size, 12 mm diameter, Corning Costar) coated with 100 μg/mL matrigel basement membrane matrix phenol red-free (Becton Dickinson), prepared in pure cold DMEM without phenol red. Raji B cells (5× 10^5) were resuspended in DMEM and added to the basolateral chamber of 7-day-old Caco-2 cell monolayers. The co-cultures were maintained for 5 days. Mono-culture of Caco-2 cells, cultivated as above but without the Raji B cells, were used as control. […] The transportation function of this in vitro M cell model was first validated using nanoparticle. FITC-RAP (2 mg/mL) in 400 μl DMEM were added to the upper layers of mono-culture and co-culture inserts and then incubated for 2 h at 37° C. under 5% CO2. All inserts were removed, and lower solutions were collected for chromatographic analysis. The lower solution collected from the co-culture group treated with unlabeled RAP was further used to treat RAW264.7 cells in a 96-well plate for 24 h, and the supernatants were sampled for IL-6 and IL-12 detection using ELISA kits.
Three co-culture and mono-cultures inserts were used to detect the presence of M-like cells by immunofluorescence. […]

human GP2+M cells = experiment: Ligated loop assay on human distal ileum explants with PPs
Description: Twenty volunteers who needed surgery were enrolled in this study. The age of the participants ranged from 20 to 50 years. All distal ilea of the small intestine were collected after their surgeries. Twenty samples of the small intestine with PP were used in this study. In brief, the small intestines with PPs were stored in ice-cold PBS with 5% FBS after surgery. The small intestine segment was ligated with a surgical suture for the ligated loop assay. It then was injected with 10 ml FITC-RAP solution (5 mg/ml) followed by incubation at 37° C. under 5% CO2 for 2 h. PPs were collected for whole-mount staining, preparation of frozen sections, and immunofluorescence staining.

[2] = test system: F4/80+ macrophages / CD34+ cells in the bone marrow; conditions: mouse, in vivo; cited from earlier work
[3] = test system: F4/80+ macrophages / CD34+ cells in the bone marrow; conditions: mouse, in vivo, po
[4] = Dynamic distribution of FITC-labeled polysaccharides in the gastrointestinal system and organs of mice after gavage; assay type: in vivo; conditions: 0 to 5 h after gavage
Description: FTIC-RAP (10 mg in 1 mL distilled water) was orally administrated to each mouse (n=6). After the mice were sacrificed at 0, 1, 2, 3, 4, and 5 h after oral administration, blood and major tissues, including liver, spleen, kidney, stomach, small intestine, mesenteric lymph nodes (MLN), Peyer's patches (PPs), caecum, and colon, were collected and imaged using an IVIS Lumina XR in vivo imaging system (PerkinElmer) immediately. The molecular size of FITC-RAP was monitored using high-performance gel-permeation chromatography. For Western blotting (WB), PPs from different groups were collected at other time points (0, 1, 2, 3, and 4 h after oral administration) and prepared for WB. For ELISA assay, PPs were collected 24 hours after RAP treatment, then homogenized and centrifugated at 15,000 rpm for 10 min to obtain the supernatant for cytokine production assessment using ELISA kits. Similarly, the dynamic distribution of FITC-DOP control in MLN and PPs was investigated.
(§1) The tissues collected from the above dynamic distribution analysis were homogenized using a 3-fold volume of 0.1 mol/L phosphate buffer (pH 7.4) and centrifuged at 15,000 rpm for 10 min. Especially, the PP collected from the ligated loop assay model were homogenized using 200 μL PBS and centrifuged at 15,000 rpm for 10 min. The supernatant was collected and stored at −20° C. for chromatographic analysis. The separation was achieved on a TSK GMPWXL column (164× 7.8 mm i.d., 10 μm) system operated at 40° C. using an Agilent-1100 HPLC system equipped with FLD. Ammonium acetate aqueous solution (20 mM) was used as a mobile phase at a flow rate of 0.6 mL/min. The excitation wavelength and emission wavelength of FLD were 495 and 515 nm, respectively.
The intestinal contents of BALB/C mice that had received oral doses of RAP (100 mg/kg/mice) were collected at 0, 1, 2, 3, 4, 5 h after oral administration (n=6 each group) for carbohydrates detection by the phenol-sulfuric acid method. […] The plate was then cooled to RT and wiped dry to detect at A490 nm by a microplate reader. […]

GP2+M cells of PPs = experiment: Ligated intestinal loop assay with FITC-RAP; assay type: in vivo, C57BL/6 mice
Description: as §1
C57BL/6 wild-type (WT) mice, and GP2^−/− C57BL/6 mice were anesthetized using isoflurane. To prepare ligated intestinal loops, incision was made near the linea alba of the abdomen to expose the small intestine. FITC-RAP (10 mg/mL) in 100 μl PBS was injected into the ligated intestinal loop. The mice were kept under anesthesia for 1 h after the injection. PPs were excised and rinsed with PBS 5 times. The cleaned PPs were photographed using an IVIS Lumina XR and then processed for HPGPC-FLD analysis, whole-mount staining, sectioning, and further microscopic analysis.
Frozen sections of PPs from the ligated loop assay were washed three times with PBS and blocked with 5% normal goat serum in PBS for 1 h. Sections were incubated with anti-mouse GP2, anti-mouse NKM 16-2-4 antibody, or anti-mouse CD11c antibody overnight at 4° C. PPs sections were washed three times with PBS and then treated with Alexa Fluor647 secondary goat anti-rabbit, […] anti-rat antibodies for 1 h at RT, followed by three consecutive PBS washes. The cell nuclei were stained with 1 μg/mL 4′,6-diamidino-2-phenylindole (DAPI) for 15 min. Sections were washed three times with PBS and mounted with an anti-fade mounting medium. Images were captured with a Leica TCS SP8 confocal laser scanning microscope.
For whole-mount staining, mouse PPs were isolated from the small intestine and washed 3 times with 1×ice-cold PBS. The PPs were fixed in 4% paraformaldehyde overnight at 4° C. and then permeabilized with 0.1% Triton X-100 for 30 min. PPs were blocked with 5% normal goat serum in PBS for 1 h. A primary rat anti-mouse glycoprotein 2 (GP2) and 1 μg/ml DAPI in PBS were used to incubate PPs for 1 h at RT, followed by rinsing 3×5 mins with PBS. The second goat anti-rat IgG antibody conjugated with Alexa647 was further stained for 1 h at RT. PPs were washed 3×5 mins with PBS and mounted with the anti-fade reagent. Images were analyzed and captured by a confocal laser microscope (SP8, Leica Microsystems).
For the detection of RAP-induced immune responses, tumor tissues and PPs were minced into small pieces and grounded with a syringe plug. For the isolation and identification of M cell, PPs and small intestine segments collected from FITC-RAP-treated mice were incubated in PBS with 0.5 mM EDTA and stirred at 37° C. for 20 min. For the isolation and detection of dendritic cells, PPs collected from WT mice and GP2--mice were ground with a syringe plug. Tissues and cells were collected and rinsed with ice-cold PBS at 400 g for 5 min, followed by filtering through a 70 μm filter. Single cell suspensions were prepared for antibody staining. Cells were incubated with antibodies or the matching isotypes for 25 min at RT. The stained cells were rinsed twice and re-suspended in PBS and analyzed by FACSAria III (BD Biosciences). Data analysis was performed with FlowJo V10 software.

[5] = C57BL/6 wild-type mice, 1 hr after injection

For “FITC-RAP: RAP labeled with fluorescein isothiocyanate isomer I (FITC)”, which “internalization by GP2+M cell in co-culture inserts” value [1] is on record?
The value was “internalized by GP2+M cell”.

What about the “co-localization of FITC-RAP puncta with GP2” value (human GP2+M cells; human PP domes, whole-mount staining) of the same substance?
Its value is “most of which were positive for GP2”.

What about the “transport into human PPs by M cells” value (human GP2+M cells; human distal ileum explants, 5 mg/ml, 2 h) of the same substance?
The value was “could be transported into PPs”.

What about the “binding to CD34+ cells in the bone marrow” value [2] of the same substance?
Its value is “binding with CD34+ cells in the bone marrow”.

What about the “binding to F4/80+ macrophages in the bone marrow” value [3] of the same substance?
Its value is “could also bind”.

What about the “fluorescence in the liver, kidney, spleen, mesenteric lymph nodes (MLN), and circulation” value [4] of the same substance?
The value was “no detectable increase”.

And the “integrity in the caecum and colon (gel permeation chromatography)” value ([4]; 100 mg/kg)?
The value was “immediately degraded”.

And the “integrity in the small intestine (gel permeation chromatography)” value ([4]; 100 mg/kg)?
The value was “remained intact in the small intestine for several hours”.

What about the “integrity in PPs (HPGPC-FLD)” value (GP2+M cells of PPs; [5]) of the same substance?
Its value is “undegraded form”.

What about the “localization in gut loop (whole animal imaging)” value (GP2+M cells of PPs; [5]) of the same substance?
The value was “concentrated in regions associated with PPs”.

What about the “positive signals of FITC-RAP in PPs, GP2-/- versus WT mice” value (GP2+M cells of PPs; GP2-/- mice, IVIS imaging, HPGPC-FLD) of the same substance?
The value was “significantly decreased”.

And the “internalization into M cells (whole-mount confocal images)” value (GP2+M cells of PPs; wild-type mice)?
Its value is “internalized into M cells”.

And the “uptake by GP2+M cells versus other intestinal epithelial cells (flow cytometry)” value (GP2+M cells of PPs; wild-type mice)?
Its value is “GP2+M cells instead of other intestinal epithelial cells accumulated FITC-RAP”.

What about the “co-localization with GP2 receptors on the M cell apical surface (frozen sections)” value (GP2+M cells of PPs; wild-type mice, confocal microscopy) of the same substance?
The value was “precisely co-localized”.
